# Measured values published in patent publication US11472855, “RNA-binding protein” (Panitch Schwarze Belisario & Nadel LLP).
# T1: hPUF_MT(R3→R5, R4→R5_R13Y, R5_R13Y)
# T1 chain: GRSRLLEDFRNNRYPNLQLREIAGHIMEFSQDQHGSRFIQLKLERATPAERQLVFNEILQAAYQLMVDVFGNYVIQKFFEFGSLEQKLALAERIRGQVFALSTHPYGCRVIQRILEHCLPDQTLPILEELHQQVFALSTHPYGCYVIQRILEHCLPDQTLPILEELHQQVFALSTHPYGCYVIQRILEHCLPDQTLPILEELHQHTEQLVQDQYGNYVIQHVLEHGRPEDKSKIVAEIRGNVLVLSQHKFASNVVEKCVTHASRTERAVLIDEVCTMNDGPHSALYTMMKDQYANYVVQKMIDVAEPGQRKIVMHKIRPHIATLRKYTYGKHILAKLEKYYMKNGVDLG
# T2: hPUF_MT(R3→R5, R4→R5)
# T2 chain: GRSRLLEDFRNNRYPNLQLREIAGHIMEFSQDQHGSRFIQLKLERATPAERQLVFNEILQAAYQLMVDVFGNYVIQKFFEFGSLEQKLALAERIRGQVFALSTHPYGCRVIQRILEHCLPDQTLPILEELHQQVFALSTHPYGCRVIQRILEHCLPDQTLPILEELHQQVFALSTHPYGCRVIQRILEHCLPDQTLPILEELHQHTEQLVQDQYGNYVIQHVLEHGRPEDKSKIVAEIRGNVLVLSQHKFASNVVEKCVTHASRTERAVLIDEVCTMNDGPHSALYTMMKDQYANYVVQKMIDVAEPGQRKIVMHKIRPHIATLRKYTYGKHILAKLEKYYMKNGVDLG
# T3: hPUF_MT(R3→R5, R4→R5_R13H, R5_R13H)
# T3 chain: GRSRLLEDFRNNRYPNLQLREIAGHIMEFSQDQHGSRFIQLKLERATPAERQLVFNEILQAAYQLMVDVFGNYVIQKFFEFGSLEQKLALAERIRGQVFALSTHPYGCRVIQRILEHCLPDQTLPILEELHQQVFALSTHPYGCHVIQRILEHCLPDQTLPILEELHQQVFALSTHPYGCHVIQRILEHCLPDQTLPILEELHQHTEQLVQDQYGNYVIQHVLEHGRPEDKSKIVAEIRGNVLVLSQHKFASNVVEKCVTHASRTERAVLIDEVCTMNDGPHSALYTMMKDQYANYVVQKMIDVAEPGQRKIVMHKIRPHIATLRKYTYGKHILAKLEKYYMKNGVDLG
# T4: hPUF_MT(R3→R5_C12N, R4→R5_C12N, R5_C12N)
# T4 chain: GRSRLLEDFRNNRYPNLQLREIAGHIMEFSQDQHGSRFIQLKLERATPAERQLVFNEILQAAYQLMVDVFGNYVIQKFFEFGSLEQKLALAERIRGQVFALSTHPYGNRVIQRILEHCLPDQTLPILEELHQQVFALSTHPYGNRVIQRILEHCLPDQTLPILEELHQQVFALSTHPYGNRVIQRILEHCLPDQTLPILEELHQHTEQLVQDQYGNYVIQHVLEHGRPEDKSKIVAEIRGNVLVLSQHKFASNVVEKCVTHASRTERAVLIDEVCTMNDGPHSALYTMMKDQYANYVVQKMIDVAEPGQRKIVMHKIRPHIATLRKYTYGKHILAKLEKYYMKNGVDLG
# T5: hPUF_MT(R3→R5, R4→R5, R5; all C12S,Q16E)
# T5 chain: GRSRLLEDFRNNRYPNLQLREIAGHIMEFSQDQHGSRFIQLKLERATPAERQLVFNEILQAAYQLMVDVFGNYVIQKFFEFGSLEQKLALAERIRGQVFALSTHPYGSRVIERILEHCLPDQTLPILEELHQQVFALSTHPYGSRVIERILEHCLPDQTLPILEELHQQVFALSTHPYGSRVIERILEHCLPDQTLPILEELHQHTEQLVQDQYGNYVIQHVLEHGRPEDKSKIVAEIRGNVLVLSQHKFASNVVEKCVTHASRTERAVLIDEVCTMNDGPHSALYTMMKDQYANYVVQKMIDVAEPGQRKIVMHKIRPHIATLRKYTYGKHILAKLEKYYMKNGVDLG
# T6: hPUF_MT(R3→R5, R4→R5, R5; all C12S,Q16R)
# T6 chain: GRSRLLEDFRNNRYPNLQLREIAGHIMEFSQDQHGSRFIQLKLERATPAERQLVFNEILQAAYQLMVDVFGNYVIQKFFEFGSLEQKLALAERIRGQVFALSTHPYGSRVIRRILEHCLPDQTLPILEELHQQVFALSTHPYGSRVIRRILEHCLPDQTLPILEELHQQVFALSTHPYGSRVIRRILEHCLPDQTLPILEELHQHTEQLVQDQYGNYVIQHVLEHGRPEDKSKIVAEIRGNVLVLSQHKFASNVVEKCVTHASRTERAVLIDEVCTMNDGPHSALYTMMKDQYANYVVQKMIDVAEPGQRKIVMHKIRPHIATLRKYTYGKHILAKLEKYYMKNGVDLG
# T7: hPUF_MT(R4→R6_N12C, R6_N12C) (UniProt Q14671 SEQ:1-349)
# T7 chain: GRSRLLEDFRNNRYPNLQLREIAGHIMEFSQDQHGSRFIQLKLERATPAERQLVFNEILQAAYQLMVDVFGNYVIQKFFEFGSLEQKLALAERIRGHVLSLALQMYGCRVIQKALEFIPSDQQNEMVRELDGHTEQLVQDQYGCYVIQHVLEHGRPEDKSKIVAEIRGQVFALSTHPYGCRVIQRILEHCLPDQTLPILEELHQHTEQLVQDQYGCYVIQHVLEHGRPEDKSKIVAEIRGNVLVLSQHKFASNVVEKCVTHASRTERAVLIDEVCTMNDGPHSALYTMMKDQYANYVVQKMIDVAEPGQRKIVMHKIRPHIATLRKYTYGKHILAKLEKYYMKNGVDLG
# T8: hPUF_MT(R4→R6_N12S,Q16E, R6_N12S,Q16E) (UniProt Q14671 SEQ:1-349)
# T8 chain: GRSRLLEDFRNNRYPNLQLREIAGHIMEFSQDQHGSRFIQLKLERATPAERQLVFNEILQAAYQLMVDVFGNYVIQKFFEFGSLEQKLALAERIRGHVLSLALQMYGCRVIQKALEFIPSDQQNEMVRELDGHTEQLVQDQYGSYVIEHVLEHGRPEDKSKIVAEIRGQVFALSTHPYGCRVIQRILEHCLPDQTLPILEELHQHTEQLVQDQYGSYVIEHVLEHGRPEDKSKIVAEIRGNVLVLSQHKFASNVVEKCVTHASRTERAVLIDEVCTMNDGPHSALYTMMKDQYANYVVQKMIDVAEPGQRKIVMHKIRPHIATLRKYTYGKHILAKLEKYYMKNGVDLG
# T9: hPUF_MT(R4→R6_N12S,Q16R, R6_N12S,Q16R) (UniProt Q14671 SEQ:1-349)
# T9 chain: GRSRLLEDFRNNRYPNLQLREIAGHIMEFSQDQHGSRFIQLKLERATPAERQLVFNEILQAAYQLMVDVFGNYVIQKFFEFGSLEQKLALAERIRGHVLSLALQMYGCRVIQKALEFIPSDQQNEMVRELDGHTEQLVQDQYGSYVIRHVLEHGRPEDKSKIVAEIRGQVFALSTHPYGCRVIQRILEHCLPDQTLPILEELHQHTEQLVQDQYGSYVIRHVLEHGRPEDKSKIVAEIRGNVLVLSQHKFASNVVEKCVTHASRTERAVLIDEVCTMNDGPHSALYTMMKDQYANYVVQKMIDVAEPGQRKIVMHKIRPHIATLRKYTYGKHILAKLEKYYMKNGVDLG
# T10: hPUF_MT(R5:A_13R)3(R6:C_13Y)3
# T10 chain: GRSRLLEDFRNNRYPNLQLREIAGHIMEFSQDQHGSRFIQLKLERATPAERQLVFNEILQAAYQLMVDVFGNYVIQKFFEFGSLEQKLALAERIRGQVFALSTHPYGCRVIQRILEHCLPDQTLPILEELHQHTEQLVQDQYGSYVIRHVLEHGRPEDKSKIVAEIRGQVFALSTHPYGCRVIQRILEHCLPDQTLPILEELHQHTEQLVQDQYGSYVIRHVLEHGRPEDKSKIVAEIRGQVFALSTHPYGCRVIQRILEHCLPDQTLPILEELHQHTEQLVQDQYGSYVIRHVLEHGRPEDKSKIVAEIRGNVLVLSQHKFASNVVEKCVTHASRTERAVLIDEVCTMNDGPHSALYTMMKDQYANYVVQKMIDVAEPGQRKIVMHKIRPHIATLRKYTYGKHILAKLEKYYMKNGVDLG
# T11: hPUF_MT(R5:A_13R)3(R6:G_13Y)3
# T11 chain: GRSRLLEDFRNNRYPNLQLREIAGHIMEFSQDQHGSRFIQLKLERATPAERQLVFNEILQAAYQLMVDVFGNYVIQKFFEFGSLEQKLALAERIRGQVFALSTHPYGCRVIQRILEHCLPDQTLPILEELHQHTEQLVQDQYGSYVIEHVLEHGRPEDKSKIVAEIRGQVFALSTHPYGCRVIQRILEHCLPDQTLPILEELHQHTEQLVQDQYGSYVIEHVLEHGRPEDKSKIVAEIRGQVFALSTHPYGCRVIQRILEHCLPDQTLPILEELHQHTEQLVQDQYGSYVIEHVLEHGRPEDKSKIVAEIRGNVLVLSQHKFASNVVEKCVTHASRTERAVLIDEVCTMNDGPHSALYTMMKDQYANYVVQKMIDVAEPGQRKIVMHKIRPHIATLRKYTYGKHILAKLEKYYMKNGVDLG
# T12: hPUF_MT(R5:G_13R)3(R6:U_13Y)3
# T12 chain: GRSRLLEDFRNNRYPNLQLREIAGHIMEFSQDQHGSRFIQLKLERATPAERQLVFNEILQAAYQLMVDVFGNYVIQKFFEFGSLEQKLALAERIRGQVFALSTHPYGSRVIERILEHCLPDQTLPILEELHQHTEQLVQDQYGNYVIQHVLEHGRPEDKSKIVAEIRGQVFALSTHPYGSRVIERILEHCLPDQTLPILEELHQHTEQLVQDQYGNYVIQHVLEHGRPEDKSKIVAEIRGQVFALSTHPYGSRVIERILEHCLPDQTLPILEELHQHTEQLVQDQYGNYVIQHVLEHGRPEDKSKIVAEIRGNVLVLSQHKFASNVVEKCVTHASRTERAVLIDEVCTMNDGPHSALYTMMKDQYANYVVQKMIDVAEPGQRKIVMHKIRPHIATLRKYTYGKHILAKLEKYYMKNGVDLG
# Assays:
# Details in all cases: label: Alexa680 at 5' and 3'
# [1] = target: T1, hPUF_MT(R3→R5, R4→R5_R13Y, R5_R13Y); test: EMSA; H=Y>R>F=W>K
# [2] = target: T2, hPUF_MT(R3→R5, R4→R5); test: EMSA; A-A stacking: H=Y>R>F=W>K
# [3] = target: T3, hPUF_MT(R3→R5, R4→R5_R13H, R5_R13H); test: EMSA; H=Y>R>F=W>K; Example 5-2 states a different order
# [4] = target: T4, hPUF_MT(R3→R5_C12N, R4→R5_C12N, R5_C12N); test: EMSA; strongest of the four
# [5] = target: T5, hPUF_MT(R3→R5, R4→R5, R5; all C12S,Q16E); test: EMSA; binds only to its target
# [6] = target: T6, hPUF_MT(R3→R5, R4→R5, R5; all C12S,Q16R); test: EMSA; binds only to its target
# [7] = target: T4, hPUF_MT(R3→R5_C12N, R4→R5_C12N, R5_C12N); test: EMSA; binds only to its target
# [8] = target: T5, hPUF_MT(R3→R5, R4→R5, R5; all C12S,Q16E); test: EMSA; stronger than A-recognising P8
# [9] = target: T6, hPUF_MT(R3→R5, R4→R5, R5; all C12S,Q16R); test: EMSA; stronger than A-recognising P8
# [10] = target: T7, hPUF_MT(R4→R6_N12C, R6_N12C); test: EMSA
# [11] = target: T8, hPUF_MT(R4→R6_N12S,Q16E, R6_N12S,Q16E); test: EMSA; comparable to or relatively weaker than WT U recognition
# [12] = target: T9, hPUF_MT(R4→R6_N12S,Q16R, R6_N12S,Q16R); test: as above
# [13] = target: T10, hPUF_MT(R5:A_13R)3(R6:C_13Y)3; test: EMSA; best of three
# [14] = target: T11, hPUF_MT(R5:A_13R)3(R6:G_13Y)3; test: EMSA; best of three
# [15] = target: T12, hPUF_MT(R5:G_13R)3(R6:U_13Y)3; test: EMSA
binder,measurement,setting,value
CCAGAAUUGUAAAUAUUCG (ssRNA) [OTS-1759],binding result,[1],binds
same,binding result,[2],binds
same,binding result,[3],binds
CCAGAAUUGUUUUUAUUCG (ssRNA) [OTS-1841],binding result,[4],binds
same,binding result,[5],no binding
same,binding result,[6],no binding
CCAGAAUUGUGGGUAUUCG (ssRNA) [OTS-1842],binding result,[6],no binding
same,binding result,[7],no binding
same,binding result,[8],binds
CCAGAAUUGUCCCUAUUCG (ssRNA) [OTS-1843],binding result,[5],no binding
same,binding result,[7],no binding
same,binding result,[9],binds
CCAGAAUUGAAAAUAUUCG (ssRNA) [OTS-1819],binding signal,[10],~0.01 fold of U-recognising type
CCAGAAUUGGAGAUAUUCG (ssRNA) [OTS-1978],binding result,[11],binds
CCAGAAUUGCACAUAUUCG (ssRNA) [OTS-1979],binding result,[12],binds
CCAGAAUUGCACACAUAUUCG (ssRNA) [OTS-2004 (Example 5-4)],binding result,[13],binds
CCAGAAUUGGAGAGAUAUUCG (ssRNA) [OTS-2008],binding result,[14],binds
CCAGAAUUGUGUGUGUAUUCG (ssRNA) [OTS-2004 (Example 5-6)],binding result,[15],binds
